Assay results taken from paper PMC5153404, “Analysis of the Interaction between Globular Head Modules of Human C1q and Its Candidate Receptor gC1qR” (Frontiers in Immunology, 2016).

Target: T1, Human C1q (human, UniProt P02745 23-245; P02746 28-253; P02747 29-245)
T1 construct: C1q A chain, human, from plasma; C1q B chain, human, from plasma; C1q C chain, human, from plasma; 18 polypeptides (6A, 6B, 6C), 460 kDa, as the introduction says; also called full-length C1q; source: purified from human plasma (IgG-Sepharose, HiTrap Protein G); copies: 6 + 6 + 6
Assay: ELISA; human C1q coated on wells (5, 2.5, 1.25, 0.625 μg/well); 2.5 μg gC1qR in 50 mM Tris-HCl pH 8.0, 100 mM NaCl, 5 mM CaCl2; 1 h at 37°C, then 1 h at 4°C; detected with anti-gC1qR polyclonal antibody and Protein A-HRP
Conditions: both partners purified

T1 sequence (P02745 23-245, chain 1 of 3): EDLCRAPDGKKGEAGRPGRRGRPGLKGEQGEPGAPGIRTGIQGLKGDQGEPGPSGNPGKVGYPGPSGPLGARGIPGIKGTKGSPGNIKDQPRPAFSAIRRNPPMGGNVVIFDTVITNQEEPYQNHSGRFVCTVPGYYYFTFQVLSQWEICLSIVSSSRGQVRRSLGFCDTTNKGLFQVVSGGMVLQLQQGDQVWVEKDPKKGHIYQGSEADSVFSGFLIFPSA
T1 sequence (P02746 28-253, chain 2 of 3): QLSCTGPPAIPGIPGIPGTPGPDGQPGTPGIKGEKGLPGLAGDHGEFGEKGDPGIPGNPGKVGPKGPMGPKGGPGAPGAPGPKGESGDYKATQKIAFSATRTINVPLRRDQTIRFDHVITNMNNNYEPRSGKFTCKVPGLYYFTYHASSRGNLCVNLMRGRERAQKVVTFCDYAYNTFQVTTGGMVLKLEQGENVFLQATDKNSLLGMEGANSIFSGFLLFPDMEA
T1 sequence (P02747 29-245, chain 3 of 3): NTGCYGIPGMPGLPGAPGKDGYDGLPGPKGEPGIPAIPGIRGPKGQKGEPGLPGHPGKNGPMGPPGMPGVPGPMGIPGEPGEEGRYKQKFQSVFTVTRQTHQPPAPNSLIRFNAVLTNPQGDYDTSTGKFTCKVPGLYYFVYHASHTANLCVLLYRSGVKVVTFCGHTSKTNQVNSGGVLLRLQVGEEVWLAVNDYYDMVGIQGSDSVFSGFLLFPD

binding result: binds
B1: Recombinant mature human gC1qR (residues 74-282) (receptor, UniProt Q07021 74-282, looked up)
chain: LHTDGDKAFVDFLSDEIKEERKIQKHKTLPKMSGGWELELNGTEAKLVRKVAGEKITVTFNINNSIPPTFDGEEEPSQGQKVEEQEPELTSTPNFVVEVIKNDDGKKALVLDCHYPEDEVGQEDEAESDIFSIREVSFQSTGESEWKDTNYTLNTDSLDWALYDHLMDFLADRGVDNTFADELVELSTALEHQEYITFLEDLKSFVKSQ
